Results published in the RNAGym collection of RNA variant scans (doi:10.1093/molbev/msab373).

B1: Azoarcus group I ribozyme (parent)
chain: GUGCCUUGCGCCGGGAAACCACGCAAGGGAUGGUGUCAAAUUCGGCGAAACCUAAGCGCCCGCCCGGGCGUAUGGCAACGCCGAGCCAAGCUUCGGCGCCUGCGCCGAUGAAGGUGUAGAGACUAGACGGCACCCACCUAAGGCAAACGCUAUGGUGAAGGCAUAGUCCAGGGAGUGGCGAAAGUCACACAAACCGG

Variants of: B1
Assay: reverse-splicing fitness (ratio to wild type); higher = more active; in vitro selection; Mg2+ level not given
In short: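 An in vitro group I ribozyme library with randomized positions was T7-transcribed and gel-purified. In triplicate, 10 pmol RNA in EPPS pH 7.5 was reacted with 50 pmoles of a 30-nt RNA substrate for 1 h at 37 °C across several added MgCl2 levels (1–48 mM), then stopped with EDTA. Products were reverse transcribed from a substrate-complementary primer, PCR-amplified and sequenced (HiSeq 4000). Fitness is a variant's read proportion after selection over that before, normalised to wild type.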
GUGCCUUGCGCCGGGAAACCACGCAAGGGAUGGUGUCAAAUUCGGCGAAACCUAAGCGCCCGCCCGGGCGUAUGGCAACGCGGAGCCAAGCUUCGGCGCCUGCGCCGAUGCAGGUGUAGUGACUAGACGGCACCCACCUAAGGCCAACGCUAUGGUGAAGGCAUAGUCUAGGGAGAGGCGAAAGUCACACAAACCGG [C82G A111C A120U A145C C169U U176A] showed a reverse-splicing fitness of 0.00293.
For GUGCCUUGCGCCGGGAAACCACGCAAGGGAUGGUGUCAAAUUCGGCGAAACCUAAGCGCCCGCCCGGGCGUAUGGCAACGCGGAGCCAAGCUUCGGCGCCUGCGCCGAUGCAGGUGUAGUGACUAGACGGCACCCACCUAAGGCCAACGUUAUGGUGAAGGCAUAGUCCAGGGAGCGGCGAAAGUCACACAAACCGG [C82G A111C A120U A145C C150U U176C], the reverse-splicing fitness was 0.00491.
Variant GUGCCUUGCGCCGGGAAACCACGCAAGGGAUGGUGUCAAAUUCGGCGAAACCUAAGCGCCCGCCCGGGCGUAUGGCAACGCGGAGCCAAGCUUCGGCGCCUGCGCCGAUGCAGGUGUAGUGACUAGACGGCACCCACCUAAGGCCAACGUUAUGGUGAAGGCAUAGUCCAGGGAGGGGCGAAAGUCACACAAACCGG [C82G A111C A120U A145C C150U U176G] has a reverse-splicing fitness of 0.00325.
Work on GUGCCUUGCGCCGGGAAACCACGCAAGGGAUGGUGUCAAAUUCGGCGAAACCUAAGCGCCCGCCCGGGCGUAUGGCAACGCGGAGCCAAGCUUCGGCGCCUGCGCCGAUGCAGGUGUAGUGACUAGACGGCACCCACCUAAGGCCAACGUUAUGGUGAAGGCAUAGUCCAGGGAGAGGCGAAAGUCACACAAACCGG [C82G A111C A120U A145C C150U U176A] yielded a reverse-splicing fitness of 0.00523.
GUGCCUUGCGCCGGGAAACCACGCAAGGGAUGGUGUCAAAUUCGGCGAAACCUAAGCGCCCGCCCGGGCGUAUGGCAACGCGGAGCCAAGCUUCGGCGCCUGCGCCGAUGCAGGUGUAGUGACUAGACGGCACCCACCUAAGGCCAACGCUAUGGUGAAGGCAUAGUCUAGGGAGUGGCGAAAGUCACACAAACCGG [C82G A111C A120U A145C C169U] showed a reverse-splicing fitness of 0.00341.
Variant GUGCCUUGCGCCGGGAAACCACGCAAGGGAUGGUGUCAAAUUCGGCGAAACCUAAGCGCCCGCCCGGGCGUAUGGCAACGCGGAGCCAAGCUUCGGCGCCUGCGCCGAUGCAGGUGUAGUGACUAGACGGCACCCACCUAAGGCCAACGCUAUGGUGAAGGCAUAGUCAAGGGAGUGGCGAAAGUCACACAAACCGG [C82G A111C A120U A145C C169A] has a reverse-splicing fitness of 0.00204.
With GUGCCUUGCGCCGGGAAACCACGCAAGGGAUGGUGUCAAAUUCGGCGAAACCUAAGCGCCCGCCCGGGCGUAUGGCAACGCGGAGCCAAGCUUCGGCGCCUGCGCCGAUGCAGGUGUAGUGACUAGACGGCACCCACCUAAGGCCAACGCUAUGGUGAAGGCAUAGUCGAGGGAGUGGCGAAAGUCACACAAACCGG [C82G A111C A120U A145C C169G] the reverse-splicing fitness was 0.00323.
GUGCCUUGCGCCGGGAAACCACGCAAGGGAUGGUGUCAAAUUCGGCGAAACCUAAGCGCCCGCCCGGGCGUAUGGCAACGCGGAGCCAAGCUUCGGCGCCUGCGCCGAUGCAGGUGUAGUGACUAGACGGCACCCACCUAAGGCCAACGCUAUGGUGAAGGCAUAGUCAAGGGAGCGGCGAAAGUCACACAAACCGG [C82G A111C A120U A145C C169A U176C] showed a reverse-splicing fitness of 0.00237.
Variant GUGCCUUGCGCCGGGAAACCACGCAAGGGAUGGUGUCAAAUUCGGCGAAACCUAAGCGCCCGCCCGGGCGUAUGGCAACGCGGAGCCAAGCUUCGGCGCCUGCGCCGAUGCAGGUGUAGUGACUAGACGGCACCCACCUAAGGCCAACGCUAUGGUGAAGGCAUAGUCAAGGGAGAGGCGAAAGUCACACAAACCGG [C82G A111C A120U A145C C169A U176A] has a reverse-splicing fitness of 0.0016.
GUGCCUUGCGCCGGGAAACCACGCAAGGGAUGGUGUCAAAUUCGGCGAAACCUAAGCGCCCGCCCGGGCGUAUGGCAACGCGGAGCCAAGCUUCGGCGCCUGCGCCGAUGCAGGUGUAGUGACUAGACGGCACCCACCUAAGGCCAACGCUAUGGUGAAGGCAUAGUCAAGGGAGGGGCGAAAGUCACACAAACCGG [C82G A111C A120U A145C C169A U176G] showed a reverse-splicing fitness of 0.00216.
Variant GUGCCUUGCGCCGGGAAACCACGCAAGGGAUGGUGUCAAAUUCGGCGAAACCUAAGCGCCCGCCCGGGCGUAUGGCAACGCGGAGCCAAGCUUCGGCGCCUGCGCCGAUGCAGGUGUAGUGACUAGACGGCACCCACCUAAGGCCAACGUUAUGGUGAAGGCAUAGUCUAGGGAGGGGCGAAAGUCACACAAACCGG [C82G A111C A120U A145C C150U C169U U176G] has a reverse-splicing fitness of 0.00249.
GUGCCUUGCGCCGGGAAACCACGCAAGGGAUGGUGUCAAAUUCGGCGAAACCUAAGCGCCCGCCCGGGCGUAUGGCAACGCGGAGCCAAGCUUCGGCGCCUGCGCCGAUGCAGGUGUAGUGACUAGACGGCACCCACCUAAGGCCAACGUUAUGGUGAAGGCAUAGUCUAGGGAGCGGCGAAAGUCACACAAACCGG [C82G A111C A120U A145C C150U C169U U176C] showed a reverse-splicing fitness of 0.00256.
Variant GUGCCUUGCGCCGGGAAACCACGCAAGGGAUGGUGUCAAAUUCGGCGAAACCUAAGCGCCCGCCCGGGCGUAUGGCAACGCGGAGCCAAGCUUCGGCGCCUGCGCCGAUGCAGGUGUAGUGACUAGACGGCACCCACCUAAGGCCAACGCUAUGGUGAAGGCAUAGUCGAGGGAGCGGCGAAAGUCACACAAACCGG [C82G A111C A120U A145C C169G U176C] has a reverse-splicing fitness of 0.00339.
Work on GUGCCUUGCGCCGGGAAACCACGCAAGGGAUGGUGUCAAAUUCGGCGAAACCUAAGCGCCCGCCCGGGCGUAUGGCAACGCGGAGCCAAGCUUCGGCGCCUGCGCCGAUGCAGGUGUAGUGACUAGACGGCACCCACCUAAGGCCAACGCUAUGGUGAAGGCAUAGUCGAGGGAGGGGCGAAAGUCACACAAACCGG [C82G A111C A120U A145C C169G U176G] yielded a reverse-splicing fitness of 0.00197.
With GUGCCUUGCGCCGGGAAACCACGCAAGGGAUGGUGUCAAAUUCGGCGAAACCUAAGCGCCCGCCCGGGCGUAUGGCAACGCGGAGCCAAGCUUCGGCGCCUGCGCCGAUGCAGGUGUAGUGACUAGACGGCACCCACCUAAGGCCAACGCUAUGGUGAAGGCAUAGUCGAGGGAGAGGCGAAAGUCACACAAACCGG [C82G A111C A120U A145C C169G U176A] the reverse-splicing fitness was 0.00322.
